Some results are limits rather than exact numbers.

Among the targets are HLA-DRB1*0401 (human); HLA-DRB1*1501 (human); HLA-DRB1*0701 (human); HLA-DRB1*1101 (human); HLA-DRB1*1301 (human); HLA-DRB1*0101 (human); HLA-DRB1*0301 (human).
Common to all, as to assay: competition binding; FIG. 35A

The IC50 is the point on the concentration scale where inhibition reaches its midpoint. A high value points to weaker potency. Consider SHEFHAINGMIYSLP [SEQ ID NO: 7 (SHEFHAINGMIYSLP)], for which the IC50 was 30.6 µM in the experiment with HLA-DRB1*0401; < 1000 nM in the experiment with HLA-DRB1*1501; < 1000 nM with HLA-DRB1*0701; 33.7 µM with HLA-DRB1*1101; 84.4 µM with HLA-DRB1*1301; < 1000 nM with HLA-DRB1*0101.
For EKDIHSGLIGPLLI [SEQ ID NO: 6 (EKDIHSGLIGPLLI)], the IC50 with HLA-DRB1*1501 stood at 2020 nM; with HLA-DRB1*0101, 1920 nM.
For the molecule KIVFKNMASRPYSIY [SEQ ID NO: 3 (KIVFKNMASRPYSIY)], the IC50 in the experiment with HLA-DRB1*0401 was 20.1 µM; with HLA-DRB1*1501 it was 2690 nM; in the experiment with HLA-DRB1*0701, 7030 nM; in the experiment with HLA-DRB1*1101, 4.36 µM; with HLA-DRB1*1301, 2.96 µM; with HLA-DRB1*0101, 2170 nM. Besides, the IC50 with HLA-DRB1*0301 was 78.6 µM.
Regarding ESNIMSTINGYVPES [SEQ ID NO: 5 (ESNIMSTINGYVPES)], the IC50 in the experiment with HLA-DRB1*0401 worked out at 96.4 µM; in the experiment with HLA-DRB1*1501, 4220 nM; with HLA-DRB1*0701, 2790 nM; with HLA-DRB1*0301 it was 80.5 µM.

The values above are taken from patent US20210300985A1 (published 2021).
